Results as given in patent publication US20140328858, “LIN28-MEDIATED CONTROL OF LET-7 BIOGENESIS” (Children's Medical Center Corporation, published 2014).
Like-named read-outs stand apart in the source and are kept apart here.

How the values were obtained:
[1] = test system: immunopurified Flag-Lin28
[2] = molecular target: immunopurified Flag-Lin28; remark: listed apart in the source
Lin28A = molecular target: T1, Lin28A (Homo sapiens, UniProt Q9H9Z2 Q9H9Z2:2-209); assay: EMSA; 50 mM Tris pH 7.5, 100 mM NaCl, 10 mM bME, RT, 0.5 nM RNA; Kd fitted (Hill) but value not in text; details: tags: 6xHis N-terminal, E. coli (pET21); label: 5'-end label (EMSA); hairpin
T1 sequence: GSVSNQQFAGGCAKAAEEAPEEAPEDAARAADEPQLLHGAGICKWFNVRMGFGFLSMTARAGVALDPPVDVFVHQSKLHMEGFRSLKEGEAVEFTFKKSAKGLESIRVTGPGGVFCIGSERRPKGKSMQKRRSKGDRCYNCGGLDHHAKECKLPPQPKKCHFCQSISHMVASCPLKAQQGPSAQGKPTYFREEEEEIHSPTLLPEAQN
Method: (§1) EMSA was performed with pre-let-7g to analyze the relative binding affinities of the two recombinant proteins. Lin28A and Lin28B have apparent Kds of approximately 0.6 nM and 0.5 nM, respectively (FIG. 7B). Both these estimated Kds are much lower than a previously reported for recombinant mouse Lin28A. This difference is likely due to the omission here of nonspecific yeast tRNA competitor used previously in the binding buffer. Piskounova et al., 2008. […] Collectively, these assays reveal that both Lin28 proteins can directly bind to let-7 precursors with high-affinity in vitro.
(§2) Transformed BL21-CodonPlus® Competent bacteria (Stratagene) were grown to an OD600 nm of 0.4-0.6. Expression was induced 100 μM IPTG for 2-3 hours. Cell pellets were resuspended in cold lysis buffer [20 mM imidazole pH 8.0 in PBS, 0.1% Phenylmethyl sulfonyl fluoride (PMSF)] and sonicated. Cleared lysates were incubated with Ni-NTA beads and after 90 min incubation at 4° C. the beads were washed with 80-column-vol. wash buffer [10 mM Tris (pH 7.8), 50 mM imidazole pH 8.0, 500 mM NaCl, 0.1% PMSF). […] Band intensities of scanned gels were quantified using ImageJ software and used to calculate percentage of probe bound. […]

Lin28B = molecular target: T2, Lin28B (Homo sapiens, UniProt Q6ZN17 Q6ZN17:2-250); assay: as above; details: tags: 6xHis N-terminal, E. coli (pET21); label: 5'-end label (EMSA); hairpin
T2 sequence: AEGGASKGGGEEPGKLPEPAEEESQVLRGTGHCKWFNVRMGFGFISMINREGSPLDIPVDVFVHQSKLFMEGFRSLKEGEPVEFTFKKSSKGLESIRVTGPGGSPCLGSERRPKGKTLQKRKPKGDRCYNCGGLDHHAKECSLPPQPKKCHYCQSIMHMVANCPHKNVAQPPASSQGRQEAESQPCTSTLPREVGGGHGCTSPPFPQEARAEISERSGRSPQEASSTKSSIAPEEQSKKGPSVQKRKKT
Method: as §1, §2

## mZcchc11 ΔC2H2 (N-terminal truncation lacking the C2H2 zinc finger)
[1]
  in vitro uridylation of synthetic pre-let-7 (incorporation of radiolabeled UTP): Loss of the N-terminal C2H2 domain still allowed for basal activity, but this mutant could no longer support Lin28-enhanced uridylation against pre-let-7

B1: mZcchc11 C326/329A (full-length) (protein)
chain: MEEPKTSKNENHEPKKNIICEESKAVKIISNQTLKPRNDKSEIGTSSLNRNSSKKTKQNDICIEKTEAKSCKVNAASVPGPKDLGLVHRDQSHCKMKKLPNSPMKAQKGSSQTKLEKTPSLQTKAEKVPKSPNLPVKAEKAPCTTAEATTEKALNSQRKEENTPTSQMKLQKTPRSPLEPENVPSLLLKENVKQTESQQTGKKLTSSFVSMDKRKSEALQGEKSALENSSLSQKQQTQTDNIADSDDSASGIEDTADDLSKMKSEESNKENSSEMDYLENATVIDESALTPEQRLGLKQAEERLERDHIFRLEKRSPEYTNCRYLAKLALIHIENIQGAHKHIKEKRHKKNILEKQEESELRSLPSPSSAHLAALSVAVVELAKEQGITDDDLRIRQDIVEEMSKVIMTFLPECSLRLYGSSLTKFALKSSDVNIDIKFPPKMNHPDLLIQVLGILKKSALYIDVESDFHAKVPVVVCKDRKSALLCRVSAGNDMACLTTDLLAALGKVEPVFTPLVLAFRYWAKLCYIDSQTDGGIPSYCFALMVMFFLQQRKPPLLPCLLGSWIEGFDPKRMDDFQLKGIVEEKFVKWEYNSSSATEKNLIADENKAKADEPKDDTKKTETDNQSNAAKAKHGKSPLTLEAPNQVPLGQLWLELLKFYTLDFALEEYVICVRIQDILTRENKNWPKRRIAIEDPFSVKRNVARSLNSQLVYEYVVERFRAAYRYFACPQKKGGNKSTMDPKKKEKGKLSSKKPVKSDCSATNCCILGESAEKIHMERGQPAKHDETEFTSQRCIVDNDSLLVNELGLANHGQDSSSLSTASGGSDLKQKSAEKQGDLTPSETSLKKELSQCICIGTPDGAESAGTDCRSNLEMDSSHQIVCNNVSATSCNCKATEVTSDLVDEDNLPSQELYYVFDKFILTSGKPPTIVCSICKKDGHSKNDCPEDFRKIDLKPLPPMTNRFREILDLVCKRCFDELSPPCSEQHNREQILIGLEKFIQKEYDEKARLCLFGSSKNGFGFRDSDLDICMTLEGHENAEKLNCKEIIENLAKILKRHPGLRNILPITTAKVPIVKFEHRRSGLEGDISLYNTLAQHNTRMLATYAAIDPRVQYLGYTMKVFAKRCDIGDASRGSLSSYAYILMVLYFLQQRKPPVIPVLQEIFDGKQIPQRMVDGWNAFFFDKTEELKKRLPSLGKNTESLGELWLGLLRFYTEEFDFKEYVISIRQKKLLTTFEKQWTSKCIAIEDPFDLNHNLGAGVSRKMTNFIMKAFINGRKLFGTPFYPLIGREAEYFFDSRVLTDGELAPNDRCCRVCGKIGHYMKDCPKRKRLKKKDSEEEKEGNEEEKDSRDLLDSRDLRCFICGDAGHVRRECPEVKMARQRNSSVAAAQLVRNLVNAQQVAGSAQQQSDQSIRTRQSSECSDSPSYSPQPQPFPQNSPQPSALPPPPSQPGSQPKLGPPQQGGQPPHQVQMPLYNFPQSPPAHYSPMHSMGLLPMHPLQIPAPSWPIHGPMLHSAPGSTPSNIGLNDPSIIFAQPAARPMAIPSPSHDGHWPRTVAPNSLVNNGAVGNSEPRFRGLNPPIPWEHAPRHFPLVPASWPYGLHQNFMHQGNPRFQPKPFYAQADRCATRRCRERCPHPPRGNVSE
[2]
  in vitro uridylation of synthetic pre-let-7 (incorporation of radiolabeled UTP): this mutant exhibited only basal uridylation activity, as the addition of Lin28 had no impact on its catalysis in vitro

B2: pre-let-7g (ssRNA)
RNA: GAGGUAGUAGUUUGUACAGUUUGAGGGUCUAUGAUACCACCCGGUACAGGAGAUAACUGUACAGGCCACUGCCUUGC
Lin28A
  binding result: binds
Lin28B
  binding result: binds
